These results are taken from article PMC6459899, “Pleiotropic Clostridioides difficile Cyclophilin PpiB Controls Cysteine-Tolerance, Toxin Production, the Central Metabolism and Multiple Stress Responses” (Frontiers in Pharmacology, 2019).

This test deals with CdPpiB wild type fused to the T25 subunit of adenylate cyclase (pKNTB) (C. difficile str. 630Δerm) (UniProt Q18D70). As to the kind of experiment: two-hybrid; BACTH in E. coli BTH101; β-galactosidase assay (ONPG, 12 min, 30°C) in Miller Units, cultures grown o/n at 30°C with 0.5 mM IPTG.

For “Lrp P87A fused to the T18 subunit of adenylate cyclase (natural protein)”, the β-galactosidase activity is 869 MU.
